From patent US20110311550A1 (Scripps Research, published 2011)

How the values were obtained:
Assay in all cases: ELISA, lectin-captured E1E2 lysate, Ab 1 ug/ml;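 note: E1E2 captured on Galanthus nivalis lectin-coated plates, bound test antibody read out by an HRP-linked secondary antibody and TMB colour development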
[1] = biological target: E1E2 complex (H77) with E1 mutation P228A (HCV genotype 1a, isolate H77, UniProt P27958 192-383; P27958 384-746)
[2] = biological target: E1E2 complex (H77) with E1 mutation N305A (HCV genotype 1a, isolate H77, UniProt P27958 192-383; P27958 384-746)
[3] = biological target: E1E2 complex (H77) with E1 mutation Q193A (HCV genotype 1a, isolate H77, UniProt P27958 192-383; P27958 384-746)
[4] = biological target: E1E2 complex (H77) with E1 mutation S327A (HCV genotype 1a, isolate H77, UniProt P27958 192-383; P27958 384-746)
[5] = biological target: E1E2 complex (H77) with E1 mutation M322A (HCV genotype 1a, isolate H77, UniProt P27958 192-383; P27958 384-746)
[6] = biological target: E1E2 complex (H77) with E1 mutation L221A (HCV genotype 1a, isolate H77, UniProt P27958 192-383; P27958 384-746)
[7] = biological target: E1E2 complex (H77) with E1 mutation R317A (HCV genotype 1a, isolate H77, UniProt P27958 192-383; P27958 384-746)
[8] = biological target: E1E2 complex (H77) with E1 mutation G354A (HCV genotype 1a, isolate H77, UniProt P27958 192-383; P27958 384-746)
[9] = biological target: E1E2 complex (H77) with E1 mutation H352A (HCV genotype 1a, isolate H77, UniProt P27958 192-383; P27958 384-746)
[10] = biological target: E1E2 complex (H77) with E1 mutation P295A (HCV genotype 1a, isolate H77, UniProt P27958 192-383; P27958 384-746)
[11] = biological target: E1E2 complex (H77) with E1 mutation N196A/N209A (HCV genotype 1a, isolate H77, UniProt P27958 192-383; P27958 384-746)
[12] = biological target: E1E2 complex (H77) with E1 mutation G350A (HCV genotype 1a, isolate H77, UniProt P27958 192-383; P27958 384-746)
[13] = biological target: E1E2 complex (H77) with E1 mutation S273A (HCV genotype 1a, isolate H77, UniProt P27958 192-383; P27958 384-746)
[14] = biological target: E1E2 complex (H77) with E1 mutation V266A (HCV genotype 1a, isolate H77, UniProt P27958 192-383; P27958 384-746)
[15] = biological target: E1E2 complex (H77) with E1 mutation R339A (HCV genotype 1a, isolate H77, UniProt P27958 192-383; P27958 384-746)
[16] = biological target: E1E2 complex (H77) with E1 mutation D346A (HCV genotype 1a, isolate H77, UniProt P27958 192-383; P27958 384-746)
[17] = biological target: E1E2 complex (H77) with E1 mutation P244A (HCV genotype 1a, isolate H77, UniProt P27958 192-383; P27958 384-746)
[18] = biological target: E1E2 complex (H77) with E1 mutation G278A (HCV genotype 1a, isolate H77, UniProt P27958 192-383; P27958 384-746)
[19] = biological target: E1E2 complex (H77) with E1 mutation S211A (HCV genotype 1a, isolate H77, UniProt P27958 192-383; P27958 384-746)
[20] = biological target: E1E2 complex (H77) with E1 mutation W326A (HCV genotype 1a, isolate H77, UniProt P27958 192-383; P27958 384-746)
[21] = biological target: E1E2 complex (H77) with E1 mutation H222A (HCV genotype 1a, isolate H77, UniProt P27958 192-383; P27958 384-746)
[22] = biological target: E1E2 complex (H77) with E1 mutation M324A (HCV genotype 1a, isolate H77, UniProt P27958 192-383; P27958 384-746)

B1: N4 IgG (antibody, V domains shown)
VH: VQLLEQSGPEVKKPGDSLRISCKMSGDSLVTTWIGWVRQKPGQGLEWMGIINPGDSSTNIYPGDSATRYGPSFQGQVTISIDKSTSTAYLQWNNVKASDTGIYYCARHVPVPISGTFLWREREMHDFGYFDDWGQGTLVIVSS
VL: ELTLTQSPGTLSLSPGERATLSCRASQSVSNNYLAWYQQKPGQAPRLLIYGASSRATGIPDRFSGSGSGTGFTLIISRLEPEDFAVYYCQQYGSSSITFGQGTRLEIKR
notes: also called IgG N4
For B1, the “Binding relative to wt (%)” value [1] was 38%, the “Binding relative to wt (%)” value [2] was 42% and the “Binding relative to wt (%)” value [3] was 117%. For the same binder, the “Binding relative to wt (%)” value [4] was 69%, the “Binding relative to wt (%)” value [5] was 143% and the “Binding relative to wt (%)” value [6] was 100%. For the same binder, the “Binding relative to wt (%)” value [7] was 98%, the “Binding relative to wt (%)” value [8] was 90% and the “Binding relative to wt (%)” value [9] was 60%. The “Binding relative to wt (%)” value [10] was 82%, the “Binding relative to wt (%)” value [11] was 21% and the “Binding relative to wt (%)” value [12] was 68%. For the same binder, the “Binding relative to wt (%)” value [13] was 70%, the “Binding relative to wt (%)” value [14] was 92% and the “Binding relative to wt (%)” value [15] was 119%. The “Binding relative to wt (%)” value [16] was 83%, the “Binding relative to wt (%)” value [17] was 95% and the “Binding relative to wt (%)” value [18] was 68%. For the same binder, the “Binding relative to wt (%)” value [19] was 93%, the “Binding relative to wt (%)” value [20] was 125% and the “Binding relative to wt (%)” value [21] was 44%. The “Binding relative to wt (%)” value [22] was 89%.
